Results as given in IntAct's records for PubMed 16873060.

B1: Protein PML (Homo sapiens), P29590 (parent)
chain: MEPAPARSPRPQQDPARPQEPTMPPPETPSEGRQPSPSPSPTERAPASEEEFQFLRCQQCQAEAKCPKLLPCLHTLCSGCLEASGMQCPICQAPWPLGADTPALDNVFFESLQRRLSVYRQIVDAQAVCTRCKESADFWCFECEQLLCAKCFEAHQWFLKHEARPLAELRNQSVREFLDGTRKTNNIFCSNPNHRTPTLTSIYCRGCSKPLCCSCALLDSSHSELKCDISAEIQQRQEELDAMTQALQEQDSAFGAVHAQMHAAVGQLGRARAETEELIRERVRQVVAHVRAQERELLEAVDARYQRDYEEMASRLGRLDAVLQRIRTGSALVQRMKCYASDQEVLDMHGFLRQALCRLRQEEPQSLQAAVRTDGFDEFKVRLQDLSSCITQGKDAAVSKKASPEAASTPRDPIDVDLPEEAERVKAQVQALGLAEAQPMAVVQSVPGAHPVPVYAFSIKGPSYGEDVSNTTTAQKRKCSQTQCPRKVIKMESEEGKEARLARSSPEQPRPSTSKAVSPPHLDGPPSPRSPVIGSEVFLPNSNHVASGAGEAEERVVVISSSEDSDAENSSSRELDDSSSESSDLQLEGPSTLRVLDENLADPQAEDRPLVFFDLKIDNETQKISQLAAVNRESKFRVVIQPEAFFSIYSKAVSLEVGLQHFLSFLSSMRRPILACYKLWGPGLPNFFRALEDINRLWEFQEAISGFLAALPLIRERVPGASSFKLKNLAQTYLARNMSERSAMAAVLAMRDLCRLLEVSPGPQLAQHVYPFSSLQCFASLQPLVQAAVLPRAEARLLALHNVSFMELLSAHRRDRQGGLKKYSRYLSLQTTTLPPAQPAFNLQALGTYFEGLLEGPALARAEGVSTPLAGRGLAERASQQS

Variants of: B1
Settings: with csk21_human CSNK2A1, P68400
Sequence of csk21_human CSNK2A1, P68400 (P68400 whole entry, looked up): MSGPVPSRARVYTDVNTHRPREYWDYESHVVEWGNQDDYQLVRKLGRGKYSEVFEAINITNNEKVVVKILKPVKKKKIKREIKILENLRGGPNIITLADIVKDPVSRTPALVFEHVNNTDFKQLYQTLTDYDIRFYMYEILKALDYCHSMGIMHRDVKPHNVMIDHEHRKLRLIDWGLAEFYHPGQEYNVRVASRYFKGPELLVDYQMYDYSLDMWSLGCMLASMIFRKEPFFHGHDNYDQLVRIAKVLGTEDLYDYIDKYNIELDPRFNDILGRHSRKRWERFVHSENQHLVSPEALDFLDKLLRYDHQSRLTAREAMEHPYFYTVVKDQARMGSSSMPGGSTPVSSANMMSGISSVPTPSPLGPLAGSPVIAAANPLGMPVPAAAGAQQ

Variant | effect of a mutation on the interaction
S518A | decreasing interaction
